Test results as given in patent US20170071208A1, “COMPOSITIONS FOR MOSQUITO CONTROL AND USES OF SAME” (Forrest Innovations Ltd., priority 2014, published 2017).

Legend:
[1] = tested on: Aedes aegypti female mosquitoes, Rio de Janeiro strain; assay: CDC bottle bioassay with deltamethrin, insecticide-resistant Rio de Janeiro strain; type: in vivo
Description: (§1) FIGS. 5A-C are graphs illustrating the dose-response curves for 3- to 5-day-old Aedes aegypti female mosquitoes on insecticide-susceptible Rockefeller strain (FIG. 5A) and on insecticide-resistant Rio de Janeiro strain (FIG. 5B). Mosquitoes were exposed to different concentrations of deltamethrin in 250-mL glass bottles for up to 24 hours and the percentage of mortality for each time point is shown. FIG. 5C, comparison of the mortality rates of female mosquitoes from Rockefeller (Rock) and Rio de Janeiro (RJ) strains exposed to 2 μg/mL of deltamethrin for different time-points. Data represent mean values of three replicates with standard deviation.
(§2) Mosquitoes were taken from an Ae. aegypti colony of the Rockefeller strain or from a mosquito field population of Ae. aegypti isolated from urban area of Rio de Janeiro, Brazil. Both lineages were reared continuously in the laboratory at 28° C. and 70-80% relative humidity. Adult mosquitoes were maintained in a 10% sucrose solution, and the adult females were fed with sheep blood for egg laying. The larvae were reared on dog/cat food unless stated otherwise.
(§3) Bottles were prepared following the Brogdon and McAllister (1998) protocol [Brogdon and McAllister (1998) Emerg Infect Dis 4:605-613]. […] At 15, 30 and 45 min intervals, the number of live and dead mosquitoes in each bottle was recorded. […]

[2] = tested on: Aedes aegypti female mosquitoes, Rockefeller strain; assay: CDC bottle bioassay with deltamethrin, insecticide-susceptible Rockefeller strain; type: in vivo; conditions: diagnostic dosage 2 μg/mL of deltamethrin; Rockefeller strain adult females
Description: as §1, §2, §3

[3] = tested on: Ae. aegypti Rockefeller strain; assay: Oviposition assay after larval dsRNA soaking plus feeding; type: in vivo, Aedes aegypti; conditions: larvae soaked 24 h in 0.5 μg/μL dsRNA, fed twice with agarose plug containing dsRNA; 15 engorged females per cage; vs water control
Description: FIG. 12 is a flowchart illustration depicting introduction of dsRNA into mosquito larvae via soaking with different doses of “naked” dsRNA plus additional larvae feeding with food-containing dsRNA. Step a) 100 larvae from A. aegypti Rockefeller strain (3rd instar) were soaked for 24 hours with the respective dsRNAs (concentration range from 0.02-0.5 μg/μL) or only in water and were then fed 2 times with food plus agarose 2% containing dsRNA until they reach adult stage (Step b). Step c) The adults arising were allowed to copulate for 3-5 days. Step d) mosquitoes were fed with defibrinated sheep blood. Step e) after blood feeding 15 fully-engorged females were transferred into 3 small cages to be assayed for oviposition. Step f) the total number of laid eggs and the percentage of hatched eggs were counted. FIGS. 13A-B are graphs illustrating larvae from Ae. aegypti Rockefeller strain (3rd instar) soaked for 24 hours in 0.5 μg/μL of Aubergine (Aub) or Argonaute-3 (Ago) dsRNAs or water only. […] (FIG. 13A) The total number of laid eggs and the percentage of hatched eggs were counted (FIG. 13B). […]
(§4) Five days after the blood meal, an ovipositon cup was place inside each cage containing 15 females to allow the females to lay their eggs. […] The number of eggs laid was counted and used to check the viability and egg hatching rate.

[4] = tested on: Argonaute-3 (AAEL007823) mRNA; assay: qPCR analysis of Ago-3 mRNA expression after dsRNA treatment; type: in vivo, Aedes aegypti; conditions: vs water; for Ago3 mRNA levels: larvae soaked 24 h in dsRNA, 24 and 48 hours after the end of dsRNA treatment
Description: Third instar larvae were treated (in groups of 100 larvae) in a final volume of 3 mL of dsRNA solution in autoclaved water (0.5 μg/μL for sodium channel (AAEL008297), PgP (AAEL010379) and Ago3 (AAEL007823) dsRNA, or 0.1 μg/μL for CYP9J26 (JF924909.1). The control group was kept in 3 ml sterile water only. Larvae were soaked in the dsRNA solutions for 24 hr at 27° C., and then transferred into new containers (300 larvae/1500 mL of chlorine-free tap water), which were also maintained at 27° C., and were provided 6 mg/100 mL lab dog/cat diet (Purina Mills) suspended in water as a source of food on a daily basis. As pupae developed, they were transferred to individual vials to await eclosion and sex sorting. For bioassays purpose only females up to five days old were used. See Flowchart 1, FIG. 1 for detailed explanation of this experiment.
Total RNA was extracted from groups of five Ae. aegypti fourth instar larvae and early adult male/female Ae. aegypti, using TRIzol (Invitrogen, Carlsbad, Calif., USA) according to the manufacturer's instructions. RNA was treated with amplification grade DNase I (Invitrogen) and 1 μg was used to synthesize cDNA using a First Strand cDNA Synthesis kit (Invitrogen). PCR products were purified using a QIAquick PCR purification kit (Qiagen). The MEGAscript RNAi kit (Ambion) was then used for in vitro transcription and purification of dsRNAs. See Flowchart 4, FIG. 4 for detailed explanation production off dsRNA.
Approximately 1000 ng first-strand cDNA obtained as described previously was used as template. The qPCR reactions were performed using SYBR® Green PCR Master Mix (Applied Biosystems) following the manufacturer's instructions. […] Raw quantification cycle (Cq) values normalized against those of the tubulin and S7 standards were then used to calculate the relative expression levels in samples using the 2^−ΔΔct method [Livak & Schmittgen, (2001) Methods. […]

[5] = tested on: Ae. aegypti Rockefeller strain; assay: Egg hatching rate after larval dsRNA soaking plus feeding; type: in vivo, Aedes aegypti; conditions: larvae soaked 24 h in 0.5 μg/μL dsRNA, fed twice with agarose plug containing dsRNA; vs water control
Description: FIG. 12 is a flowchart illustration depicting introduction of dsRNA into mosquito larvae via soaking with different doses of “naked” dsRNA plus additional larvae feeding with food-containing dsRNA. Step a) 100 larvae from A. aegypti Rockefeller strain (3rd instar) were soaked for 24 hours with the respective dsRNAs (concentration range from 0.02-0.5 μg/μL) or only in water and were then fed 2 times with food plus agarose 2% containing dsRNA until they reach adult stage (Step b). Step c) The adults arising were allowed to copulate for 3-5 days. Step d) mosquitoes were fed with defibrinated sheep blood. Step e) after blood feeding 15 fully-engorged females were transferred into 3 small cages to be assayed for oviposition. Step f) the total number of laid eggs and the percentage of hatched eggs were counted. […] (FIG. 13A) The total number of laid eggs and the percentage of hatched eggs were counted (FIG. 13B). […]
as §4
To check the viability of the eggs the oviposition paper were kept to dry and embrionate for a period minimum of 5 days. […] The hatching rate (HR) for each treatment were calculated as follow: HR=total number of hatched larvae/total number of eggs oviposited). […]

With CC1(C)[C@H](C(=O)O[C@H](C#N)c2cccc(Oc3ccccc3)c2)[C@@H]1C=C(Br)Br [deltamethrin] the “mosquitoes in the population resistant to deltamethrin” value ([1]; Rio de Janeiro (RJ) strain, at diagnostic dosage 2 μg/mL) was 36.05%, the “mosquitoes killed (mortality)” value ([1]; diagnostic dosage 2 μg/mL of deltamethrin, Rio de Janeiro strain adult females) was 63.95% and the “mosquitoes dead (mortality)” value [2] was 100%.

B1: Ago3: dsRNA targeting Argonaute-3 (AAEL007823), Example 1, SEQ ID NO: 1823 (nucleic acid)
chain: CCCCGTCGACGGCCACGAAGTTACGATCAAGATCATTTACAAGCGCAAACAGCGAATGAGCGAGAACATTCAATTCTACAACATTCTCTTCCAACGCATTATGAAAGTCCTGAAGATGGTCGAGATGGGTCGTAAGAACTTTGACCCCTCGGCCCCGAAACTGATTCCGCAGCATCGTCTGGAGATCTGGCCGGGATACGTTAGCGCTGTGGACGAATATGAGGGCGGCTTGATGTTGAATCTCGACGTGTCCCATCGTGTGCTGCTCCAGACGACGGTTTTGGATCACATCCGAACGCTGGCAAGGGCCAATCCCCAAGATTACAAAAACATGGCCACCAAATCGCTGCTGGGAGCCGTTATATTGACCCGA
modifications: double stranded RNA
In the case of B1, the “oviposition rate (total number of laid eggs)” value [3] is reported as “no difference”, the “Ago3 mRNA expression” value ([4]; adult mosquitoes soaked with dsRNA as larvae) is reported as “reached normal levels” and the “Ago3 mRNA levels” value [4] is reported as “decreased mRNA levels”. The “Ago3 mRNA levels” value ([4]; listed as dsRNA against Ago3) was “induce gene silencing” and the “number of hatched eggs (hatchability)” value [5] was 50%.
